Measurements from the nanobody polyreactivity screen of Harvey et al. (2022).

Assay: yeast display, Sf9 membrane polyspecificity reagent, FACS + sequencing; frameworks hold sequencing errors
How it was run: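 Nanobodies from a synthetic yeast display library (Saccharomyces cerevisiae BJ5465), induced 36–48 hours with galactose, were stained 1 hour at 4 °C with 10% biotinylated, detergent-solubilized Sf9 membrane reagent, enriched on streptavidin microbeads, then FACS-sorted. Anti-HA (expression) and streptavidin (reagent binding) fluorescence set low and high (top ~1%) gates. Polyreactivity labels come from the gate of origin. Genes were colony-PCR amplified, MiSeq 2 × 250 sequenced and filtered by CDR length.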

Sequence	polyreactivity (PSR sort gate)
QVQLVESGGGLVQAGGSLRLSCAASASIFYIYAKGSYRQAPGKARELVAVIRNGGRTNYADSVKGRFTISRDNAKNTVYFQMNSLKPEDTAVYYCAARPRHVTRFDYWGQGTQVTVSS	high polyreactivity
QVQLVESGGVLVQAGGSLRISSAASGRIFKVYAMGWYRQAPGKEREFVAVITGGGSTNYADSVKGRFTISRDNAKNTVYLQMNSLKPEDTGVYYCATEGYGHGGETDGGVYSDLGYWGQGTQVTVSS	low polyreactivity
QVQLVESGGGLVQAGGSLRLSCAASGITFYEYAMGWYRQAPGKEREFVAAIDDGDSSTYYADSVKGRFTISRDNAKNTVYLQMHSLKPEDTAVYYCNADPYYVYSLNWGDFWGQGTQVTVSS	low polyreactivity
QVQLVESGGGLVQAGGRLRLSCAASGFTLWGYAMGWYRQAPGKERELVASMSWSGGGTNYADSVKGRFTISRDNAKNTVYLQMNSLKPEDPAVYYCAAQYYTVSRYYGVERKFGYWGQGSQVTVSS	high polyreactivity
QVQLVESGGGLVQAGGSLRLSCAASGSIFYRYAMGWSRQAPGKERELVAYISSGVSTNYADSVKGRFTISRDNAKKTVYLQMNSLKPEDTAVYYCAVRHSYTRAYWGRDFWGQGTQVTVSS	low polyreactivity
QVQLVESVGGLVQAGGSLRLSCAASGDTFTSYAMGRYRQAPGKVRELVAAISRRGGSTYYAESVKGRFTISRDNAKNTVYLLMNSLKPEDTAFYYCAAKSYSYTEFDYGGQGTQVTVSS	high polyreactivity
QVQLVESGGGLVKAGGSLRLSCAASGGTFNRNAMGWYRQAPAKERELVAAICSSGGRTYYADSVKGRFTISRDNAKNTVYLQMNSLKPEDTAGYYCAAGRKGHGGAYDSWGQGTQVTVSS	high polyreactivity
QVQLVESGVGLVQAGGSLRLSCAASGRIFCYYAMGWYRQAPGKERELVATINGGGSTNYADSVKGRFTISRDNAKNTVYLQMNSLKPEDTAVYYCAAAQWAYWLLYKYWGQVTQVTVSS	low polyreactivity
QVQLVESGGGLVQAGGSLRLSCAASGRIFSINAMGWYRQAPGKERELVAAITSRGTSTYYADSVKGRFTISRDNAKNTVYLQMNSMKPEDTAVYYCAKKYVGGPWPRYFWGQGTQVTVSS	high polyreactivity
QVQLVESRGGLVQAGGSLRLSCAASGFIFSRYGMGWYRQAPGKERELVAAISRSGGSTYYADSVKGRFTISRDNAKNTVYVQMNSLKPEDTAVYYCATAYSWRNADWFAYSYDYWGQGTQVTVSS	low polyreactivity
QVQLVESGGGLVQAGGSLRLSCAASGRIFWRNAMGWSRQAPGKERELVAAISSGGSTYYADSVKGRFTISRDNAKNTVYLQMNSLKPEDTAVYYCAARSSWRGVRYDHFERVYWGQGTQVTVSS	high polyreactivity
QVQLVESGGGLVQAGGSLRLSCAASGRILWFYAMGWYRQAPGKERELVAAISWNGGSTYYADSVKGRFTISRDNAKNTVYLQMNSLKPEDTAVYYCAARPFHIHLSLEYNYWGQGTQVTVSS	low polyreactivity
QVQLVESGGGLVQAGGSLRLSCAASGSTFTYNTLVWYRQAPGKERELVAAISWGGGGTYYADSVKGRFTISRDNAKNTVYLQMNSLKPEDTAVYYCNADPWWDYGTFDYWGQGTQVTVSS	low polyreactivity
QVQLVESGGGLVQAGGSLRLSCAASGSTFLRNDMGWYRQAPGKERELVAAITSGGITNYADSVKGRFTISRDNAKNTVSLQMNSLKPEDTAVYYCNKDSDLHHYHTEFDYWGQGTQVTVSS	low polyreactivity
QVQLVESGGGLVQAGGSLRLSCAASGFTFLDNAMGWYRPAPGKERELVAAISGIGGSTSYADSVKGRFTISRDNAKNTVYLQMNSLKPEDTAVYYCATRWQTVGRDTIFAYDYWGQGTQVTVSS	low polyreactivity
QVQLVESGGGLVQAGGSLRLSCAASGRIFTSYVMGWYRQAPGKERELVAAITSSGGSTYYADSVKGRFTISRDNAKNTVYLQMNSLKPEDTAVYYCAAATRGSGRRYDYWGQGTQVTVSS	high polyreactivity
QVQLVESGGGLVQAGGSLRLSCAASGSTFTLYAMGWYRQAPGKERELVASITASDGSTSYADSVKGRFTISRDNAKNTVYLQMNSLKPEDTAVYYCAARYRVRGISYYYWGQGTQVTVSS	low polyreactivity
QVQLVESGGGLVQAGGSLRLSCAASGSTFVVNDMGWYRQAPGKDRELVASITAGGSTYYADSVKGRFTISRDNAKNTVNLQMNSLKPEDTAVYYCAKVQDRAYLPHQRGRERDYDYWGQGTQVTVSS	low polyreactivity
QVQLVESGGGLVQAGGSLRLSCAASGFTFRNYAMGWYRKAPGKERELVATIDRGTTSTYYADSVKGRFTISRDNAKNTVYLQMNSLKPEDTAVYYCAARAWRYGYGYWGQGTQVTVSS	high polyreactivity
QVQLVESGGGLVQAGGSLRLSCAASGSTFTRNAMGWYRQAPGKERELVAVISSRGGRTYYADSVKGRFTISRDNAKNTVYLQMNSLKPEDTAVYYCAARYVIPLGNSYDYWGQGTQVTVSS	high polyreactivity
QVQLVESGGRLVQAGGSLRLSCAASGRIFSRNAMGWYRQAPGKERELVAGISARGGRTYYADSVKGRFTISRDNAKNTVYLQMNSLKPEDTAVYYCAASFSAIRGGVRVTIDYYWGQGTQVTVSS	high polyreactivity
QVQLVESGGGLVQAGGSLRLSCAASGSTFATYTMGWYRQAPGKERELVAAISVSGSRTYYADSVKGRFTISRDNAKNTVYLQMNSLKPEDTAVYYCNADPPVKLYLYDYWGQGTQVTVSS	high polyreactivity

Sequence	polyreactivity (PSR sort gate)
QVQLVESGGGLVQAGGSLRLSCAASGFTFYSYAMGWYRQAPGKERELVAAITRSGGNTYYADSVKGRFTISRDNAKNTVYLQMNSLKPEDTAVYYCAAPGKGISPSHYYWGQGPQVTVSS	high polyreactivity
QVQLVESGGGLGQAGGSLRLSCAASGSIFGRYAMGWYRQAPGKERELVTVITSGGSTNYADSVKGRFTISRDNAKNTVYLQMNSVKPEDTAVFYCAVRPYELHRLADQHGGDDYWGQGTQVTVSS	low polyreactivity
QVQLVESGGGLVQAGGSLRLSCAASGSIFYIYAMGWYRQAPGKERELVAAISWSGSSTYYADSVKGRFTISRDNAKHTVYLQMNSLKPEDTAVYYCAADTGYGVRYYYWGQGTQVTVSS	high polyreactivity
QVQLVESGGGLVQAGGSLRLICAASGRIFFVNAMGWYRQAPGKERELVAAISRSAGRTYYADSVKGRFTISRDNAKNTVYLQMNSLKPEDTAVYYCATEGRTDYNREMEYWGQGTQVTVSS	low polyreactivity
QVQLVESGGGLVQAGGSLRLSCAASGRTFGSYAMAWYRQAPGKERELVAAITWSGTGTYYADSVKGRFTISRDNAKNTVYLQMKSLKPEVTAVYYCAARYASGRRGEYWGQGTQVTVSS	high polyreactivity
QVPLVESGGRLVQAGGSLRLSCAASGSTIGPYTMGWYRQAPGKERELVATISSGGSTYSADSVKGRFTISRDNEKNTVYLQMISLKPEDTAVYYCAARYRSIYDYWGQGTQVTVSS	low polyreactivity
QVQLVESGGGLVQAGGSLRLSCADSGSIFYRYAMGWYRQAPGKERELGAAISQSGGSTYYADSVKGRFTISRDNAKNTVYLQMNSLKPEDTAVYYCQLIRRGHDYWGQGTQVTVSS	high polyreactivity
QVQLVESGGGLVQAGGSLLLSCAASGSTFISYAMGWYRQAPGKERELVAAITWRGGSTYNADSVKGRFTISRDNAKNTVYLQMNSMKPEDTAVYYCAAEFYYYYGRYDYWGQGTQVTVSS	high polyreactivity
QVQLVESGGGIVQAGGSLRLSCAASGYTIDSYGMGWYRQAPGKERELVAAIDWSGGSTYYADSVKGRFTISRDNAKNTVYLQMNSLKPEDTAVYYCAARRGLRLFAYRHGYWGQGTQVTVSS	low polyreactivity
QVQLVESGGGLVQAGGSLRLSCAASGRNFSLYAMGWYRQAPGKERELVAAISWSGGNTYYADSVKGRFTISRDNAKNTVYLQMNSLKPEDTAVYYCNTVSYRGDWNPSKYYYWGQGTQVTLSS	high polyreactivity
QVQLVESGGGLVQAGGSLRLSCAASGRNFPYYAMGWYRQAPGKERELVATISSGGITNYADSVKGRFTISRDNAKNTVYLELNSLKPEDTAVYYCAADRHWSAGLWRYDYWGQGTQVTVSS	high polyreactivity
QVQHVESGGGLVQAGGSLRLSCAASGSTIYHYAMGWSRPAHGKERELVAAITTIGGRTYYADSVKGRFTISRDNAKNTVYLQMNSLKPEDTAVYYCAAGYRAWEPYGHYGYWGQGTQVTVSS	high polyreactivity
QVQLVESGGGLVQAGGSLRLTCAASGVTFRYYAMVWYRQAPGKERELVAAITGSGTRTYYADSVKGRFTISRDNAKNTLYLQMNSLKPEDTAVYYCNAPRQPRWFDYWGQGTQVTVSS	high polyreactivity
QVQLVESGGGLVQAGGSLRLSCAASGSIFYYYAMGWYRQAPGKERELVAAINSGVSTYYADSVKGRFTISRDNAKNTVYLQMNSLKPEDTAVYYCAAPGHNLYGSWFSWTPDTYDYWGQGTQVTVSS	low polyreactivity
QVQLVESGGGLVQAGGSLRLSCAASGRTFFRYAMGWYRQAPGKERELVAAISSRGGSTYYADSVKGRFTISRDNAKNTVYLQMNSLKPEDTAVYYCNADAFINFILYDYWGQGTQVTVSS	high polyreactivity
QVQLVESGGGLVQAGGSLRLSCAASGRTSRIYAMGWYRPAPGKRELVAAISGSGSRTYYADSVKGRFTISRDNAKNTVYIQMNSLKPEDTAVYYCNGRYWYRDHPPEFDYWGQGTQVTVSS	high polyreactivity
QVQRVESGGGLVQAGGSLRLSCAASGSTFYAYAMGWYRQSPGKERELVATITWSGGSTFYADSVKGRFTISRDNAKNTVYLQMNSLKPEDTAVYYCAARSRFPTIADGDYWGQGTQVTVSS	low polyreactivity
QVQLVDSGGGLVQAGGSLRLSCAASGYILGRYAMGWYRQAPGKERELVAAISSSGGSTYYADSVKGRFTISRDNGKNSVYLQINSLKPEDTAFYYWNVPRFYGSYNYWGQGTQVTVSS	high polyreactivity
QVQLVESGGGLVQAGGSLRLSCAASGFIFTYYDMGWYRQAPGKERELVASISWDGGRTYYADSVKGRFTISRDNAKNTVYLQMNSLKPEDTAVYYCAKRLGGSPIQARGDYWGQGTQVTVSS	low polyreactivity
QVQLEESGGGLVQAGGSLRLSCAASGRNFSVYAMGWYRPAPGKERELVARIRSGGSTYYADSVKGRFTISRDNAKNTVYLQMNSLKPEDTAVYYCAADGFASRWYAYYYWGQGTQVTVSS	high polyreactivity
QVQLVESGGGLDQAGGSLRLSCAASGRIYYPYARGLYRQAPGKESELVAAISSGVSTNYADSVKGRFTISRDNAKTTVYLQMNSLKPEDTAVYYCARTYFRFASSYYPAVSHGYWGQGTQVTVSS	high polyreactivity
